Results taken from patent publication US20240252641A1 (TCR2 THERAPEUTICS, published 2024).
Residue numbers refer to the chain shown, from its start.

B1: 14-TC6-I-F03 (scFv)
scFv: QVQLVQSGAEVKKPGASVKVSCKASGYTFTGYYMNWVRQAPGQGLEWMAWINPNTGDTNYAQKFQGRVTMTRDTSINTAYIELSRLTSDDTAVYYCARVGDYYDRSGYYRHDAFDIWGQGTMVTVSSGGSGGSGGSGGSSSELTQDPAVSVALGQTVRITCQGDSLRSYYASWYQQKPGQAPVLVIYGKNNRPSGIPDRFSGSNSGNTATLTISGTQAMDEADYYCQAWDSSTVFGGGTKVTVL
notes: His-tagged
B2: 35-TC6-VII-A09 (scFv)
scFv: EVQLVQSGGGVVQPGRSLRLSCAASGFTFSSYGMHWVRQAPGKGLEWVAVISYDGSNKYYADSVKGRFTISRDNSKNTLYLQMNSLRAEDTAVYYCAKAGAPPHYYYGMDVWGQGTTVTVSSGGSGGSGGSGGSQSALTQPASVSGSPGQSITISCTGTSSDVGGYDYVSWYQQHPGKAPKLMIYEVTDRPSGIPNRFSGSKSGNTASLTISGLQAEDEADYYCSSYTYTSTLEVFGGGTKVTVL
notes: His-tagged
B3: 13-TC7-I-E11 (scFv)
scFv: QVQLQQWGAGLLKPSETLSLTCAVYGGSFSGYYWSWIRQPPGKGLEWIGEINHSGSTNYNPSLKSRVTISVDTSKNQFSLKLSSVTAADTAVYYCARSRRPYWYFDLWGRGTLVTVSSGGSGGSGGSGGSQSVLTQPPSVSGAPGQRVTISCTGSSSNIGAGYDVHWYQQLPGTAPKLLIYGDSNRPSGVPDRFSGSGSGTSASLAITGLQAEDEGDYYCQSFDSNLSRYVFGAGTKLTVL
notes: His-tagged
B4: 43-TC4-VII-C04 (scFv)
scFv: QVQLLESGGGLVQPGRSLRLSCAASGFTFDDYAMHWVRQAPGKGLEWVSGISWNSGSIGYADSVKGRFTISRDNAKNSLYLQMNSLRAEDTAVYYCARDLVYYYGMDVWGQGTTVTVSSGGSGGSGGSGGSQSVLTQPPSVSGTPGQGVSISCSGSSSNIGWKTVNWYQQVPGMAPKLLIYSDNQRPSGVPDRFSGSKSATSASLAISGLQSEDEADYYCASWDASVNAPVFGGGTKLTVL
notes: His-tagged
B5: 14-TC4-III-A04 (scFv)
scFv: QVQLVQSGAEVKKPGASVKVSCKASGYTFTGYYMNWVRQAPGQGLEWMAWINPNTGDTNYAQKFQGRVTMTRDTSINTAYIELSRLTSDDTAVYYCARVGDYYDRSGYYRHDAFDIWGQGTMVTVSSGGSGGSGGSGGSSSELTQDPAVSVALGQTVRITCQGDSLRSYYASWYQQKPGQAPVLVIYGKNNRPSGIPDRFSGSSSGNTASLTITGAQAEDEADYYCQAWDSSTGVFGGGTKVTVL
notes: His-tagged
B6: 59-TC4-VII-F02 (scFv)
scFv: QLQLQESGPGLVKPSGTLSLTCAVSGGSISSSNWWSWVRQPPGKGLEWIGEIYHSGSTNYNPSLKSRVTISVDKSKNQFSLKLSSVTAADTAVYYCAGPGPDPNDAFDIWGQGTMVTVSSGGSGGSGGSGGSSSELTQDPAVSVALGQTVRITCQGDSLRSYYASWYQQLPGTAPKLLIYQDSKRPSGIPERFSGSNSGNTATLTISGTQAMDEADYYCQAWDSSTAVFGGGTKLTVL
notes: His-tagged
B7: 14-TC4-XIII-A01 (scFv)
scFv: QVQLVQSGAEVKKPGASVKVSCKASGYTFTGYYMNWVRQAPGQGLEWMAWINPNTGDTNYAQKFQGRVTMTRDTSINTAYIELSRLTSDDTAVYYCARVGDYYDRSGYYRHDAFDIWGQGTMVTVSSGGSGGSGGSGGSSSELTQDPAVSVALGQTVRITCQGDSLRSYYASWYQQKPGQAPVLVIYGKNNRPSGIPDRFSGSSSGNTASLTITGAQAMDEADYYCQAWDSSTGVVFGGGTKVTVL
notes: His-tagged
B8: 58-TC7-III-G11 (scFv)
scFv: EVQLVQSGGGVVQPGRSLRLSCAASGFTFSSYAMHWVRQAPGKGLEWVAVISYDGSNKYYADSVKGRFTISRDNSKNTLYLQMNSLRAEDTAVYYCATNSGYDSDYYYGMDVWGQGTTVTVSSGGSGGSGGSGGSQSVLTQPPSMSGAPGQRVTISCTGSSSNIGAGYDVHWYQHLPGTGPKLLIHGNTNRPSGVPDRFSGSKSGTSASLAITGLQAEDEADYYCQSYDNSLGGYVVFGGGTKVTVL
notes: His-tagged
B9: 30-TC1.2-I-C08-1 (scFv)
scFv: QMQLVQSGAEVKKPGASVKVSCKASGYTFTSYGISWVRQAPGQGLEWMGWINPNTGGTDYAQKFQGRVTITRDTSITTGYMELSRLRSDDTAVYYCARHYYYGMDVWGQGTTVTVSSGGSGGSGGSGGSDIQLTQSPSSLSASVGDRVTITCQASQDISNYLNWYQQKPGKAPKLLIYDASNLETGVPSRFSGSGSGTDFTFTISSLQPEDIATYYCQQYDNLPLTFGGGTKVEIK
notes: His-tagged
B10: 1-TC4-I-C10 (scFv)
scFv: EVQLVQSGAEVKKPGESLKISCKGSGYSFTSYWIGWVRQMPGKGLEWMGIIYPGDSDTRYSPSFQGQVTISADKSISTAYLQWSSLKASDTAMYYCAISRTESYVMDVWGQGTTVTVSSGGSGGSGGSGGSQSALTQPRSVSGSPGQSVTISCTGTSSDVGGYNYVSWYQQHPGKAPKLMIYDVTNRPSGVPDRFSASKSDNTATLTVSGVQAEDEADYYCSSYAGSHELFGGGTKLTVL
notes: His-tagged; also called 1867
B11: 13G6 (antibody, V domains shown)
VH: QVQLVESGGGVVQPGKSLRLSCAASGFTFSNYGIHWVRQAPGKGLEWVAVIWYDGSYKYYADSVKGRFTISRDNSKNTLYLQMNSLRAEDTALYYCARDTVDTYGSFDYWGQGTLVTVSS
VL: DIQLTQSPSFLSASVGDRVTITGRASQGISSYLAWYQQKPGKAPNLLIYAASTLQSGVPSRFSGSGSGTEFTLTISSLQPEDFATYYCQQHNRYPITFGQGTRLEIK
notes: alloy mouse hybridoma antibody; also called 13G6E8
B12: 9A11 (antibody, V domains shown)
VH: QVQLVESGGGVVQPGRSLRLSCAASGFTFSNYGMYWVRQAPGKGLEWVAVIWYDGSKKYYGDSVKGRFTISRDNSKNTLYLQMNSLRAEDTAVYYCARDEDTVMASFDYWGQGTLVTVSS
VL: B11 VL with G23C, G28D, S31I, N45Q, Y87S, H91L, R93S, Q100G, R103K, L104V
notes: alloy mouse hybridoma antibody; also called 9A11E8

target: T1, CD70 on cells (CHO-CD70, JVM-3, U266, Raji, THP-1, T cells) (human, UniProt P32970 1-193); test: 1.25 µg/mL scFv on CHO-CD70 cells
T1 construct: whole, on cells; also called cell-surface CD70
T1 sequence (looked up): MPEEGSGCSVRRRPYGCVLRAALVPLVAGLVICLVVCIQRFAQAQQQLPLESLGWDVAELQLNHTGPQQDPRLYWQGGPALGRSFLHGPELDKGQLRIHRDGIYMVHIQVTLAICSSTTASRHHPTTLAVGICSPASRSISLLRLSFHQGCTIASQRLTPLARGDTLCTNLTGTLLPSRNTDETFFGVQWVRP
Summary of the method: (§1)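 Tumour cell lines with high CD70 expression (CHO-CD70, JVM3, U266) or low CD70 expression (CHO WT, K562) were used to assess cell binding of human scFv antibodies, with results recorded per line. These antibodies had been selected by panning a naïve human library on the CD70 extracellular domain (aa39-193).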

Binder	cell binding
B1	33400
B2	1.15e+06
B3	532000
B4	723000
B5	610000
B6	850000
B7	111000
B8	277000
B9	503000
B10	978000

target: T1, CD70 on cells (CHO-CD70, JVM-3, U266, …); test: 1.25 µg/mL scFv on U266 cells
Summary of the method: as §1

Binder	cell binding
B1	1430
B2	16500
B3	32000
B4	20000
B5	20400
B6	18500
B7	953
B8	12000
B9	17400
B10	48800

target: T1, CD70 on cells (CHO-CD70, JVM-3, U266, …); test: on Raji cells

Binder	cell binding
B11	144000
B12	145000

target: T1, CD70 on cells (CHO-CD70, JVM-3, U266, …); test: on U266 cells

Binder	cell binding
B11	389000
B12	351000

target: T2, human CD70, recombinant, N-terminally biotinylated (residues 39-193) (human, UniProt P32970 39-193, N-terminal biotin); test: CD27 blocking ELISA, 3 µM scFv, anti-His/HRP; note: unit not given here
T2 construct: range 39-193; the same entry is used there; also called biotinylated human CD70; CD70 biotin
T2 sequence (looked up): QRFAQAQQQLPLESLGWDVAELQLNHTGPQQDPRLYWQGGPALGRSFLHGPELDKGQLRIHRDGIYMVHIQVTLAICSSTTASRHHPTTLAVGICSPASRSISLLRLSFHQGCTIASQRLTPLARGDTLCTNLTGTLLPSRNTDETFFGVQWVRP
Description: Human scFv antibodies binding CD70 were generated by panning a naïve human library with the extracellular domain (aa39-193) of CD70. 53 antibodies were identified. The ability of CD27 to block CD70 binding of the identified antibodies was measured by ELISA using two different assays. In the first assay, CD27 and his-tagged scFv anti-CD70 binders were simultaneously added to surface bound CD70, and the ability of the scFv binders to bind CD70 was detected with anti-His HRP. In the second assay, plate-bound CD70 was pre-incubated with CD27 for 30 minutes, and then additional CD27 and the his-tagged scFv anti-CD70 binder was added. The ability of the scFv binders to bind CD70 was detected with anti-His HRP. FIG. 34 is a schematic of the two different CD27 blocking assays. CD70 affinity was also measured by SPR analysis. scFv antibodies were also tested for their ability to bind tumor cell lines with high (CHO-CD70, JVM3, and U266) and low levels (CHO WT and K562 of CD70 expression. Results for 39 antibodies are shown in Table 1 below.

Binder	anti His/HRP
B1	2.47
B2	0.639
B3	2.29
B4	1.81
B5	2.81
B6	2.06
B7	1.74
B8	1.97
B9	1.83
B10	2.83

target: T1, CD70 on cells (CHO-CD70, JVM-3, U266, …); test: 1.25 µg/mL scFv on JVM-3 cells
Summary of the method: as §1

Binder	cell binding
B1	1880
B2	18800
B3	80500
B4	45000
B5	17000
B6	52100
B7	1290
B8	14700
B9	37400
B10	73300

target: T2, human CD70, recombinant, N-terminally …; test: SPR
Summary of the method: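 Surface plasmon resonance (SPR) was used to determine the affinity (Kd) of human scFv antibodies for recombinant, N-terminally biotinylated human antigen. These antibodies were selected from a naïve human library panned against the CD70 extracellular domain, spanning aa39-193.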

Binder	Kd [nM]
B1	289
B2	367
B3	44.7
B4	69.9
B5	13.7
B6	101
B7	2830
B8	8900
B9	67.3
B10	6.17

target: T1, CD70 on cells (CHO-CD70, JVM-3, U266, …); test: on JVM-3 cells

Binder	cell binding
B11	479000
B12	410000

target: T2, human CD70, recombinant, N-terminally …; test: CD27 blocking ELISA, 3 µM scFv, strep/HRP

Binder	strep/HRP
B1	0.954
B2	1.49
B3	1.42
B4	1.44
B5	0.359
B6	1.43
B7	1.46
B8	0.503
B9	1.5
B10	0.075
